Legend:
[1] = target: the molecule itself; experiment: cryo-EM structure; inactive state: CaSR in GDN/CHS micelles with NPS-2143 (NAM), 1 mM CaCl2 and a 1.2 molar excess of NB-2D11
[2] = target: T1, CaSR ECD (extracellular domain of human calcium-sensing receptor) (Homo sapiens, UniProt P41180); experiment: SPR; Biacore T200; CaSR ECD coupled to the chip by amino-carboxyl coupling; nanobody flowed at a series of concentrations (30 ul/min, association 90 s, dissociation 220 s); 25 C; 20 mM HEPES pH 7.4, 150 mM NaCl, 0.05% Tween 20; details: both partners purified
T1 construct: human calcium-sensing receptor (CaSR), extracellular domain (VFT domain and cysteine rich domain); crystal structures of CaSR ECD (PDB 5K5T, 5K5S; Geng et al., 2016) are cited but not tied to this construct
T1 sequence (P41180 whole entry, looked up, the tested form may be a part): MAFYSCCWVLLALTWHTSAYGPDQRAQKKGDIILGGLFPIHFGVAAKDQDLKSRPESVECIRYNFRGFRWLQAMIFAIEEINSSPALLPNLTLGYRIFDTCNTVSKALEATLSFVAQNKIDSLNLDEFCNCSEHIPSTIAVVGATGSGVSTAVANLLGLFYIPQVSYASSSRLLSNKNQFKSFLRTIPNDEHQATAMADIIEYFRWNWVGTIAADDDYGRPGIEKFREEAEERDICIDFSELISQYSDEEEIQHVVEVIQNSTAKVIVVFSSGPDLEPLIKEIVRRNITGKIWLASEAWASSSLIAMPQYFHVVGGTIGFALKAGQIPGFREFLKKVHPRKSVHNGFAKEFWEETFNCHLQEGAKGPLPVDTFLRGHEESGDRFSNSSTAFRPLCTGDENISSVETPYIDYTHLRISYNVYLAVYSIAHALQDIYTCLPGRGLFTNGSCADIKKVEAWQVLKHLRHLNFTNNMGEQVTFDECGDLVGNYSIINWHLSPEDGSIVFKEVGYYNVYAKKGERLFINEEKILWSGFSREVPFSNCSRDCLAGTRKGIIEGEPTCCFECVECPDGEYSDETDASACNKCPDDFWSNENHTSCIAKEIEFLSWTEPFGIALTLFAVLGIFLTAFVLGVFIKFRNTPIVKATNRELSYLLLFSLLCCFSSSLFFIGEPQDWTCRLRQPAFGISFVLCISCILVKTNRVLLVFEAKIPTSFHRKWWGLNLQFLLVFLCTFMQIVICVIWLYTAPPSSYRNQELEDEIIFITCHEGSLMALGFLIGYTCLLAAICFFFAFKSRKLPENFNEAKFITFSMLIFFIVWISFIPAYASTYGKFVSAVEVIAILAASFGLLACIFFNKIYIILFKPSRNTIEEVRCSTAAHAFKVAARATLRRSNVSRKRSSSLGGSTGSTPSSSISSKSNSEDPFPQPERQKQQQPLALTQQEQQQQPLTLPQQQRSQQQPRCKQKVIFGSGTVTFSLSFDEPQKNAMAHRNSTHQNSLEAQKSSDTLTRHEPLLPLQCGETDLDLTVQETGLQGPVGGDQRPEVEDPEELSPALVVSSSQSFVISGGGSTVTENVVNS

Binder | binding result [1] | Kd [2] [pM]
Human calcium-sensing receptor CaSR (1-870) with C-terminal Flag tag (receptor, UniProt P41180-1 20-870, looked up, signal peptide in the construct; human calcium-sensing receptor (CaSR), residues 1-870, cDNA NM_000388.4; Flag printed as DYKDDDD; Cloned into a modified pEG BacMam vector; also called full-length CaSR; hCaSR; source: HEK293 GnTI- cells infected with baculovirus (BacMam), purified (anti-Flag M2, Mono Q, Superose 6) in GDN/CHS) YGPDQRAQKKGDIILGGLFPIHFGVAAKDQDLKSRPESVECIRYNFRGFRWLQAMIFAIEEINSSPALLPNLTLGYRIFDTCNTVSKALEATLSFVAQNKIDSLNLDEFCNCSEHIPSTIAVVGATGSGVSTAVANLLGLFYIPQVSYASSSRLLSNKNQFKSFLRTIPNDEHQATAMADIIEYFRWNWVGTIAADDDYGRPGIEKFREEAEERDICIDFSELISQYSDEEEIQHVVEVIQNSTAKVIVVFSSGPDLEPLIKEIVRRNITGKIWLASEAWASSSLIAMPQYFHVVGGTIGFALKAGQIPGFREFLKKVHPRKSVHNGFAKEFWEETFNCHLQEGAKGPLPVDTFLRGHEESGDRFSNSSTAFRPLCTGDENISSVETPYIDYTHLRISYNVYLAVYSIAHALQDIYTCLPGRGLFTNGSCADIKKVEAWQVLKHLRHLNFTNNMGEQVTFDECGDLVGNYSIINWHLSPEDGSIVFKEVGYYNVYAKKGERLFINEEKILWSGFSREVPFSNCSRDCLAGTRKGIIEGEPTCCFECVECPDGEYSDETDASACNKCPDDFWSNENHTSCIAKEIEFLSWTEPFGIALTLFAVLGIFLTAFVLGVFIKFRNTPIVKATNRELSYLLLFSLLCCFSSSLFFIGEPQDWTCRLRQPAFGISFVLCISCILVKTNRVLLVFEAKIPTSFHRKWWGLNLQFLLVFLCTFMQIVICVIWLYTAPPSSYRNQELEDEIIFITCHEGSLMALGFLIGYTCLLAAICFFFAFKSRKLPENFNEAKFITFSMLIFFIVWISFIPAYASTYGKFVSAVEVIAILAASFGLLACIFFNKIYIILFKPSRNTIE | binds | –
NB-2D11 (camel nanobody) (VHH, Cloned in pMECS with a PelB signal peptide; HA tag followed by 6x histidine tag at the C-terminus; Isolated from a phage display library of camels immunised with human CaSR; also called NB-D211; source: E. coli TOP10F' periplasm, purified (Ni-NTA, Superdex 75)) VHH: QVQLQESGGGSVQAGGSLRLSCAASGFPISTYDMGWFRQAPGKEREGVVGITDSFSIKYEDSVKGRFTISRDNAKNALYLQMNSLKPEDTGMYYCAAGDARWSLLLRAEQYNYWGQGTQVTVSS | – | 240
